Results reported in publication PMC2596486.

Legend:
[1] = biological target: rHA subtype H1 (A/New Caledonia/20/99) (Influenza A virus A/New Caledonia/20/1999 (H1N1)) (UniProt Q6WG00); assay: SPR
[2] = biological target: rHA subtype H1 (A/New Caledonia/20/99) (influenza A virus A/New Caledonia/20/99 (H1)) (UniProt Q6WG00); assay: SPR

| Substance | Kd [1] [nM] | koff [1] [s⁻¹] | kon [1] [M⁻¹ s⁻¹] | Kd [2] [nM] | koff [2] [s⁻¹] | kon [2] [M⁻¹ s⁻¹] |
| --- | --- | --- | --- | --- | --- | --- |
| CR6323 Fab | 3.9 | 0.00054 | 140000 | – | – | – |
| CR6261 Fab | – | – | – | 3.8 | 0.0037 | 980000 |
